The source of these data is patent publication US20170160285A1 (VIB VZW, published 2017).

Sequences and labels used below:
T1: Recombinant rat RIC8A (resistance to inhibitors of cholinesterase 8A) (rat, UniProt Q80ZG1 1-491, limits assumed)
T1 construct: In the FACS screening it was labelled at random on amines with DYLIGHT-405 NHS ester
T1 sequence (looked up): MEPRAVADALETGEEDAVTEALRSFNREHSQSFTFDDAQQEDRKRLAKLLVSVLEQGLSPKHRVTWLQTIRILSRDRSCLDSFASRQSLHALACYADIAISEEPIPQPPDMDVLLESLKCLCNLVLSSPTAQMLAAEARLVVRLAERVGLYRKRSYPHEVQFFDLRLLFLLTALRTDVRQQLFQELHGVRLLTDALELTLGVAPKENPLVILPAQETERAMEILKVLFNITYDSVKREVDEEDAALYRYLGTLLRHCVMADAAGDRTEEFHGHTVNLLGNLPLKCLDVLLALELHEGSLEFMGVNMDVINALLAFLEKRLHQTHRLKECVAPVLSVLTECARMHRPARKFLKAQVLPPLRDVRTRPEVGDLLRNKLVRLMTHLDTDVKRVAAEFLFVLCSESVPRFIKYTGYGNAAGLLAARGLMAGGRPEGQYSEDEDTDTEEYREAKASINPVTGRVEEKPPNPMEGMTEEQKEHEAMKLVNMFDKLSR

B1: NANOBODY CA8318 (VHH)
VHH: QVQLVESGGGRVQAGDSLRLSCAASGRTFSPYAMGWFRQAPGKEREFVATINWSGDYTYYTDSVKGRFTTSRDNAKNTLYLEMNSLNAEDTAVYYCVARVGSPSSSDRAYQYWGQGTQVTVSS
notes: Family 8; also called CA8334 (pMESy4, E. coli)
B2: NANOBODY CA8319 (VHH)
VHH: QVQLVESGGGLVQAGGSLRLSCEASGRTSSSYVMGWFRRVSGKEREFVAAINPTGSSTYYADSVKGRFTISRDNSKNTVYVQMNGLKPEDTAVYYCAATRRDFYIIRNSRPQFDYWGQGTQVTVSS
notes: Family 10
B3: NANOBODY CA8315 (VHH)
VHH: QVQLVESGGGLVQAGGSLRLSCAASGRTFSNYAMGWFRQTPGKEREFVAAITWSGGATYYADSVKGRFIISRDNTKNTVYLQMNSLKPEDTAVYYCAADRKPYSYYPSDFGSWGQGTQVTVSS
notes: Family 5; also called CA8331 (pMESy4, E. coli)
B4: NANOBODY CA8403 (VHH)
VHH: QVQLVESGGGLVQAGGSLRLSCAASTRTFSNYVMGWFRQAPGKEREFVSAITSSGRGTSYADSVKGRFTISRDNAKNTVFLQMNSLKPEDTAVYYCAATAADYVLRSRPSVYSYWGQGTQVTVSS
notes: Family 20; also called CA8432 (pMESy4, E. coli)
B5: NANOBODY CA8421 (VHH)
VHH: QVQLVESGGGLVQAGGSLRLSCAASGRTFSNYAMGWFRQAPGKEREFVAHITWTGGITYYSDSVKGRFIISRDNAKNTVNLQMNSLKAEDTAVYYCAADRVPYRFGVPSINEYDYWGQGTQVTVSS
notes: Family 26
B6: NANOBODY CA8411 (VHH)
VHH: QVQLVESGGGLVQAGGSLRLSCAASARTFSRYGAGWFRQAPGKEREFVGAITWGGGRTKYADSVKGRFTISRDNSKNTVYLQMNSLKSEDTAVYYCASSSIEFGPLEDTYDYWGQGTQVTVSS
notes: Family 3
B7: NANOBODY CA8402 (VHH)
VHH: QVQLVESGGGLVQAGGSLRLSCAASGRTFSNYAMGWFRQAPGKEREFVAAISWSGGKTLYAESVKGRFTISRDNAKNTVYLQMNSLKPEDTAVYYCAATPADLTVVAGPPRIEMWYWGQGTQVTVSS
notes: Family 19; also called CA8431 (pMESy4, E. coli)
B8: NANOBODY CA8424 (VHH)
VHH: QVQLVESGGDLVQAGGSLRLSCAASGGIFIINNMGWYRQTPGNQRELVAEITRAGNSNYADSVKGRFTISRDNAKNTVYLQMNRLKPEDTAVYYCNFNVRYYGEYWGQGTQVTVSS
notes: Family 29; also called CA8444 (pMESy4, E. coli)
B9: NANOBODY CA8314 (VHH)
VHH: QVQLVESGGGLVQAGDSLRLSCTASERAFSRYAMGWFRQAPGKERELVAAVSWAGGTTYYGDSVKGRFTISRDNAKITVYLQMNSLKPEDTAVYYCAAEAREFSVGSYYATEYDYWGQGTQVTVSS
notes: Family 4; also called CA8330 (pMESy4, E. coli)
B10: NANOBODY CA8418 (VHH)
VHH: QVQLVESGGGLVQAGGSLRLSCAASGRTFSNYAMGWFRQAPGKEREFVAALTWSGGNTVYRDSVKGRFIITRDNAKNAVYLQMNSLKPEDTAVYYCASDRRPYRYNIGTAEGEYNYWGQGTQVTVSS
notes: Family 23
B11: NANOBODY CA8405 (VHH)
VHH: QVQLVESGGGLVQDGGSLRLSCTASGRTFSNNAMGWFRQEPGREREFVAAIRWNGIANYADSVKGRFTISGDNAKNTVYLQMNSLKPDDTAVYYCAAAIRDGHNYYASDMRRYDYWGQGTQVTVSS
notes: Family 21; also called CA8433 (pMESy4, E. coli)
B12: NANOBODY CA8312 (VHH)
VHH: QVQLVESGGGLVQAGGSKRLSCAASGRPFSNSAMGWFRQAPGKEREFVAAISWSGGNTYYADSVKGRFTISRDNAKNAVYLRMNSLEPEDTAVYYCAGDRQPYVYDLPTAQYQYDYWGQGTQVTVSS
notes: Family 1; also called CA8328 (pMESy4, E. coli)
B13: NANOBODY CA8406 (VHH)
VHH: QVQLVESGGGLVQPGGSLRLSCAASTNIFNLRSMGWYRQAPGKERELVATITTYNTNYADSVKGRFTISRDNAKKTMYLQMNSLRPEDTAVYYCNLQNRYDAMDYWGKGTQVTVSS
notes: Family 11
B14: NANOBODY CA8408 (VHH)
VHH: QVQLVESGGGLVQAGDSLRLSCAASGLIVSNYAMGWFRQAPGKEREFVAYINWNGGVTYYTNSVKGRFTISRDNAKNTVYLQMNSLKPEDTAVYYCARTSRASVTTRVADFGYWGQGTQVTVSS
notes: Family 6; also called CA8109 (pMESy4, E. coli)
B15: NANOBODY CA8419 (VHH)
VHH: QVQLVESGGGLVQPGGSLRLSCAASGFTFSRFVMNWARQAPGKGLEWVSTINSDGDVTSYADSVKGRFTISRDNAKNTLYLQMNSLKPEDTAVYYCGKGWFLNRRDESRGQGTQVTVSS
notes: Family 24
B16: NANOBODY CA8316 (VHH)
VHH: QLQLVESGGGLVQAGGSLRLSCAASGDTFSRYVMGWFRQAPGKERTFVVGISGGGGITRYADSVKGRFTISRDNAENTLYLEMNTLNPEDTAVYYCAATPADSAFMRNLRVYDYWGQGTQVTVSS
notes: Family 7; The same nanobody subcloned in pMESy4 and purified from E. coli is CA8332
B17: NANOBODY CA8322 (VHH)
VHH: QVQLVESEGGLVQPGGSLRLSCAASGFTFKYYYMNWVRQAPGKGLEWVSRINQLGGTSYGDSVKGRFTISRDNAKNTLYLQMNSLVPEDTAVYYCARCPAGAACKVEYDYRGQGTQVTVSS
notes: Family 16; also called CA8338 (pMESy4, E. coli)

One assay deals with T2, Recombinant Gαi1 (heterotrimeric G protein alpha subunit i1) (rat, UniProt P10824 1-354).
T2 construct: In the FACS screening it was labelled at random on amines with DYLIGHT-488 NHS ester; The sentence reads 'Recombinant rat RIC8A (uniprot:Q80ZG1) and Gαi1 (uniprot:P10824)'
T2 sequence (P10824 whole entry, one chain of several): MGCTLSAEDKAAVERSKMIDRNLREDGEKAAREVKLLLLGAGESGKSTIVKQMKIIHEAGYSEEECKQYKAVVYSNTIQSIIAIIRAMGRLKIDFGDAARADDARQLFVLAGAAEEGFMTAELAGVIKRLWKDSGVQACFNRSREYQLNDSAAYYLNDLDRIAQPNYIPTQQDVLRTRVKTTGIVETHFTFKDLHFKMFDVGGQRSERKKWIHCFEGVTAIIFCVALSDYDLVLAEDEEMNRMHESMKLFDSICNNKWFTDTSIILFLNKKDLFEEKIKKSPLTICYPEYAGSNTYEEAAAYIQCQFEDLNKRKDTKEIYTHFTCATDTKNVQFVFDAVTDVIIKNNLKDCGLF
The assay can be described thus: FACS on single yeast clone displaying the Nb; Gαi1-DYLIGHT-488.
Regarding B1, the binding result is “no binding (tested: 1 µM)”.
On the same count and under the same terms, then B2, with “no binding (tested: 1 µM)”.
Same read-out and setting: next, B3: “no binding (tested: 1 µM)”; B4: “no binding (tested: 1 µM)”.
The same measure, in the same setting: then B5, with “no binding (tested: 1 µM)”; and B6, with “no binding (tested: 1 µM)”.
Consider B7, for which the binding result is “no binding (tested: 1 µM)”.
Still for that read-out and setting: then B8, with “no binding (tested: 1 µM)”; and B9, with “no binding (tested: 1 µM)”.
In the case of B10, the binding result is “no binding (tested: 1 µM)”.
Regarding B11, the binding result is “no binding (tested: 1 µM)”.
Same read-out and setting: next, B12: “no binding (tested: 1 µM)”; B13: “no binding (tested: 1 µM)”; B14: “no binding (tested: 1 µM)”.
Still for that read-out and setting: next, B15: “no binding (tested: 1 µM)”.

For the next assay, the target named is T1, Recombinant rat RIC8A (resistance to …). The assay is described as follows: FACS on single yeast clone displaying the Nb; RIC8A-DYLIGHT-405.
For B1, the binding result was “no binding (tested: 1 µM)”.
Same read-out and setting: then B2, with “no binding (tested: 1 µM)”; and B3, with “no binding (tested: 1 µM)”.
Still for that read-out and setting: next, B4: “no binding (tested: 1 µM)”.
On the same count and under the same terms, then B7, with “no binding (tested: 1 µM)”; and B9, with “no binding (tested: 1 µM)”.
As to B11, the binding result is on record as “no binding (tested: 1 µM)”.
For B12, the binding result is listed as “no binding (tested: 1 µM)”.

The next assay shares this target. The assay is described as follows: FACS of yeast cells displaying the Nb, stained with 1 µM RIC8A-DYLIGHT-405; black = clone (CA8316 per legend), grey = irrelevant Nb.
Take B16: the binding result was “no binding (tested: 1 µM)”.

A further assay concerns the target T2, Recombinant Gαi1 (heterotrimeric G …). The assay can be described thus: FACS of yeast cells displaying the Nb, stained with 1 µM Gαi1(GDP)-DYLIGHT-488; black = clone (CA8316 per legend), grey = irrelevant Nb.
For B16, the binding result was “no binding (tested: 1 µM)”.

Another assay has the same target. The assay is described as follows: FACS of yeast cells displaying the Nb, stained with 1 µM Gαi1(GDP)-DYLIGHT-488; black = clone (CA8322 per legend), grey = irrelevant Nb.
B17: the binding result is given as “no binding (tested: 1 µM)”.
